Assay results published in PMC11191641.

Molecular target: His-tagged ferritin-based nanoparticle (FNP): Helicobacter pylori ferritin with N-terminal domain B (S. aureus | Helicobacter pylori)
Test: BLI
Conditions: Fc fusion

For “NiV-B-G-Fc: Nipah virus Bangladesh attachment glycoprotein G (residues 176-602) fused with a C-terminal human IgG1 Fc (from UniProt P01857)”, the Kd was 9.46 nM.
